{"source": "patent US20190375786A1", "about": "“STABLE PEPTIDES AND METHODS OF USE THEREOF” (Fred Hutchinson Cancer Research Center, priority 2016, published 2019)", "key": {"chymotrypsin": {"test_system": "chymotrypsin", "assay": "SDPR surface display protease resistance, anti-6xHis staining, chymotrypsin", "format": "cell-based", "conditions": "HEK-293 cells, up to 40 μg/ml chymotrypsin for 20 minutes", "description": "Soluble peptides were exposed to 500 U/mL porcine trypsin and analyzed by HPLC. Protease resistance was also assessed by using SDPR-displaying peptides. The SDPR vector is similar to the a surface display GFP FasL(SDGF) vector, but contains a C-terminal 6×His tag (SEQ ID NO: 180) and all basic or aromatic amino acid residues on the stalk removed. Protease resistance is then tested by incubation of cells displaying peptides with trypsin or chymotrypsin, followed by incubation in 10 mM DTT, and staining with an anti-6×His fluorophore-labeled antibody (“6×His” disclosed as SEQ ID NO: 180). If peptides are uncleaved, they retain the His tag and are stained with by the antibody. A control protease-sensitive knottin peptide (SK) was used as a positive control. Cells displaying peptides were treated with up to 40 μg/ml trypsin or chymotrypsin.\nTo determine the impact of protease treatment or reducing condition on the function of the peptides, i.e., binding activity, various binding or functional assays can be performed. […] After treatment with the protease and reducing agent, any linearized peptide product or degradation product resulting from reduction and/or proteolysis by treatment with a protease can be detected or analyzed by staining against the 6×His tag (SEQ ID NO: 180). […]"}, "[1]": {"assay": "SYPRO Orange melting assay", "format": "physicochemical", "conditions": "heating from 20° C. to 95° C.", "description": "(§1) Protein secondary structures were assessed using Circular Dichrosim (CD). CD spectra were measured with a Jasco J-720W spectropolarimeter using a 1.0 mm path length cell. Protein samples in 10 mM phosphate buffer (pH=7.4) were at 25-30 μM protein concentration. Samples were analyzed at wavelength ranges of […]. Data were expressed in terms of relative ellipticity [θ]; (mdeg). To determine thermal stability of proteins, samples were subjected to incremental increase in temperature at a ramp of 2° C./min from 20° C. to 95° C. Stability and protein unfolding were monitored at 220 and 215 for α-helix and β-sheet secondary structures, respectively. Data are expressed in terms of relative ellipticity [θ], reported in mdeg. For SEQ ID NO: 43 and its point mutant variants, no changes to the α-helix-dominated structure were observed upon heating up to 95° C. […] Additionally, protein melting temperature (Tm) determination was performed by monitoring protein unfolding using SYPRO Orange dye (Molecular Probes). In brief, 0.1 mg/mL protein sample in 20 μL total volume PBS buffer were mixed with 24, of 10× SYPRO Orange dye. Dye intercalation into the hydrophobic protein core following protein unfolding was assayed using the C1000 Touch Thermal Cycler with CFX96 Deep Well Real-Time System (BioRad). Samples were heated from 20° C. to 95° C. with stepwise increments of 0.5° C. per minute and a 5 sec hold step for every point, followed by fluorescence reading. Tm were calculated by analyzing the derivatives of Relative florescence Units (RFU). FIG. 17D illustrates this SYPRO Orange melting assay of Peptides."}, "[2]": {"assay": "Circular dichroism thermal stability, heating 20° C. to 95° C.", "format": "physicochemical", "conditions": "10 mM phosphate buffer pH 7.4; heated 20° C. to 95° C.", "description": "as §1"}}, "data": [{"sequence": "GSPDEYIERAKECCKKQDIQCCLRIFDESKDPNVMLICLFCW [SEQ ID NO: 43]", "values": [{"measurement": "resistance of surface-displayed peptide to cleavage by chymotrypsin", "setting": "chymotrypsin", "result": "partially resistant"}, {"measurement": "melting temperature (Tm)", "setting": "[1]", "result": "no melting temperature could be determined"}, {"measurement": "CD secondary structure signature before (Pre) and after (Post) incubation at 95° C.", "setting": "[2]", "result": "identical"}]}]}
